± gives the uncertainty stated by the source.
Experiment: amyloid nucleation score (Sup35N fusion, yeast selection) (log enrichment); library NNK1; higher = more nucleation; inactive = no reads after selection
Method in brief: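 In psi-negative yeast, Sup35N fusions carrying peptides of 20 random codons were induced with 100 μM copper sulfate for 24 hours. The cells then grew 7 days at 30°C on medium lacking adenine and uracil, and plasmid inserts from input and output were Illumina-sequenced, excluding sequences with under 100 input reads. Nucleation score is the DiMSum log enrichment of output over input reads, centred on the mode score of non-aggregating sequences.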

Q: For IQFIDRPDHIARRLVWFRIG, which amyloid nucleation score is on record?
A: 0.351 ± 0.27

Q: With IQLILSSAEFFSLAGSREYR as the substance, how does the amyloid nucleation score read?
A: 2.43 ± 0.22

Q: Which amyloid nucleation score does the source give for IQYELMRMACSRNFIIAEFF here?
A: 0.2 ± 0.72

Q: For IRFHCLHLVAVLTKTRVFEA, which amyloid nucleation score is on record?
A: 0.064 ± 0.95

Q: For IRGCTAC, which amyloid nucleation score is on record?
A: 0.958 ± 0.76

Q: With IRHRCSLMICFPAHTRGSAQ as the substance, how does the amyloid nucleation score read?
A: -0.219 ± 0.68

Q: For IRKGSFPD, which amyloid nucleation score is on record?
A: -0.841 ± 0.82

Q: With IRLGHIQVFVSGRFENRLIF as the substance, how does the amyloid nucleation score read?
A: 0.257 ± 0.56

Q: With IRLLAKI as the substance, how does the amyloid nucleation score read?
A: inactive

Q: Which amyloid nucleation score does the source give for IRLNVFFNMELMRLDLLWR here?
A: 0.311 ± 0.72

Q: With IRMDSCRTFYLSLSWHIYCS as the substance, how does the amyloid nucleation score read?
A: 0.338 ± 0.23

Q: For IRMLSRSLSKMSIIFHGGKG, which amyloid nucleation score is on record?
A: 1.33 ± 0.46

Q: Which amyloid nucleation score does the source give for IRSQKRYLCSGSLLCKVSRR here?
A: 1.38 ± 0.51

Q: For IRTNKVFASMPYDNSDTFCS, which amyloid nucleation score is on record?
A: -1.5 ± 1.9

Q: Which amyloid nucleation score does the source give for IRVLVSCVGYPFTCILKVWT here?
A: 1.18 ± 0.97

Q: Which amyloid nucleation score does the source give for IRYKA here?
A: 4.49 ± 0.11

Q: For ISCTNCLKCPLYTSFRPLLC, which amyloid nucleation score is on record?
A: -0.13 ± 0.44

Q: For ISCWRNYLDLSSLYLFALFI, which amyloid nucleation score is on record?
A: 2.53 ± 0.077

Q: Which amyloid nucleation score does the source give for ISDCNRMFTSLSWDMSSPLI here?
A: 1.75 ± 0.57

Q: For ISIPYICIMVFFFDAVRVDQ, which amyloid nucleation score is on record?
A: 0.49 ± 0.34

Q: Which amyloid nucleation score does the source give for ISLIFHVMNDLWCIAIELGS here?
A: 0.183 ± 0.59

Q: Which amyloid nucleation score does the source give for ISLKG here?
A: 0.655 ± 0.59

Q: Which amyloid nucleation score does the source give for ISNFVGTTMIIQGSVNTVYK here?
A: 6.962 ± 0.055

Q: For ISNLWYNCCGIRPS, which amyloid nucleation score is on record?
A: 5.86 ± 0.047

Q: Which amyloid nucleation score does the source give for ISNVWNCGKFRSLGLFVTGQ here?
A: 0.247 ± 0.31

Q: Which amyloid nucleation score does the source give for ISPRDHESLTNFHVRLCHMR here?
A: 0.368 ± 0.57

Q: With ISPVGIIMYQCSAWLTRFRS as the substance, how does the amyloid nucleation score read?
A: 0.204 ± 0.43

Q: For ISRISVSEEFKGCMGREWVT, which amyloid nucleation score is on record?
A: 1.1 ± 0.52

Q: For ISSILFLQCLSWGGNR, which amyloid nucleation score is on record?
A: 5.38 ± 0.095

Q: With ISTSLSTGLGKLRESWLTYH as the substance, how does the amyloid nucleation score read?
A: inactive

Q: With ITDVMCMGGSTCFGNSGYTN as the substance, how does the amyloid nucleation score read?
A: 0.108 ± 0.56

Q: For ITETSSSETMLLVVRTWEVW, which amyloid nucleation score is on record?
A: 0.332 ± 0.63

Q: With ITGLVRLFC as the substance, how does the amyloid nucleation score read?
A: 0.134 ± 1

Q: With ITKLIVSFQGFFV as the substance, how does the amyloid nucleation score read?
A: 4.24 ± 0.12

Q: With ITMWMPRILRVTITYDTRG as the substance, how does the amyloid nucleation score read?
A: 0.111 ± 1.2

Q: With ITREVSL as the substance, how does the amyloid nucleation score read?
A: 1.36 ± 0.61

Q: For ITSRVQFRETHTYIMYLEAW, which amyloid nucleation score is on record?
A: 0.138 ± 0.43

Q: Which amyloid nucleation score does the source give for ITTIMTAVTVSPPQSMWFVS here?
A: 1.96 ± 0.25

Q: Which amyloid nucleation score does the source give for ITVYLMALVNNVCG here?
A: 3.38 ± 0.13

Q: With ITYMYGYCMDYF as the substance, how does the amyloid nucleation score read?
A: 0.439 ± 0.38

Q: Which amyloid nucleation score does the source give for ITYSLSIYSSRAICLYVWGG here?
A: -0.119 ± 0.62

Q: For ITYTGASR, which amyloid nucleation score is on record?
A: 0.295 ± 0.57

Q: For IVCSGLCHIN, which amyloid nucleation score is on record?
A: 7.08 ± 0.071

Q: For IVDPWY, which amyloid nucleation score is on record?
A: 2.56 ± 0.12

Q: For IVFFQEDGSWAEWFVGEVLT, which amyloid nucleation score is on record?
A: 0.557 ± 0.42

Q: With IVGLQAVENIRNSCICLFMK as the substance, how does the amyloid nucleation score read?
A: 4.5 ± 0.065

Q: For IVHIHGLQAANLAASWSANL, which amyloid nucleation score is on record?
A: 2.68 ± 0.18

Q: For IVLFSPFTW, which amyloid nucleation score is on record?
A: -0.062 ± 0.31

Q: For IVLGYFRGIHFLGVLGMLIK, which amyloid nucleation score is on record?
A: inactive

Q: With IVMQVLTQTVMWIFYLNGSH as the substance, how does the amyloid nucleation score read?
A: -0.254 ± 0.42

Q: Which amyloid nucleation score does the source give for IVMVVMSSFGINEHPPDNQN here?
A: 1.35 ± 0.27

Q: With IVNSKCRFWYYINGTVIFFL as the substance, how does the amyloid nucleation score read?
A: 6.331 ± 0.059

Q: Which amyloid nucleation score does the source give for IVNVSCITNVDGGSLADSAV here?
A: 2.48 ± 0.25

Q: With IVPRAFIAWIAYQGRSPYGA as the substance, how does the amyloid nucleation score read?
A: 0.619 ± 1.2

Q: With IVQIIPGVCCA as the substance, how does the amyloid nucleation score read?
A: 0.311 ± 1.2

Q: For IVSNAIIPTGEG, which amyloid nucleation score is on record?
A: 0.283 ± 0.71

Q: For IVTEVGGVVDEYARWPVGMT, which amyloid nucleation score is on record?
A: 8.737 ± 0.05

Q: Which amyloid nucleation score does the source give for IVTRWY here?
A: -0.257 ± 0.21

Q: For IVTSMSYNFLLKLMAGPQLR, which amyloid nucleation score is on record?
A: 0.274 ± 0.67

Q: With IVVKV as the substance, how does the amyloid nucleation score read?
A: -0.035 ± 0.97

Q: For IVYRPLAFVAVSCSESGHSV, which amyloid nucleation score is on record?
A: 4.56 ± 0.087

Q: Which amyloid nucleation score does the source give for IWALKVWLRLTYCHICFRVV here?
A: 0.265 ± 0.58

Q: With IWCSCAYRGVGMSTGFAIIY as the substance, how does the amyloid nucleation score read?
A: 1.13 ± 0.58

Q: For IWFLHHEVKF, which amyloid nucleation score is on record?
A: 0.603 ± 0.58

Q: With IWLVQIHVSSSMPTSYPHIS as the substance, how does the amyloid nucleation score read?
A: 0.355 ± 1.4

Q: With IWRFIFGFGVYVCNGMALSQ as the substance, how does the amyloid nucleation score read?
A: 0.291 ± 0.53

Q: Which amyloid nucleation score does the source give for IWTFRYVFRIFTCSDGTMVH here?
A: -0.108 ± 0.42

Q: For IYARNIRRLTRFPDLLDLVM, which amyloid nucleation score is on record?
A: 1.47 ± 0.17

Q: Which amyloid nucleation score does the source give for IYASLNVEICFADLPWSTWV here?
A: 0.358 ± 0.81

Q: Which amyloid nucleation score does the source give for IYCEEFMLEMTSRIRV here?
A: -0.976 ± 0.47
